Source: patent publication US7507538B2, “Human papilloma virus immunoreactive peptides” (priority 2001, dated 2009)
“Also recorded” adds a separate entry of the source.

Experiments:
[1] = system: autologous PBMC pulsed with HPV-16E6 or HPV-18E6 peptides; test: 51Cr release lysis of peptide-pulsed autologous PBMC by lymphocytes stimulated in vitro with peptide; assay type: cell-based, human; details: lymphocytes of an HLA-A2 patient, peptide at 10 μm for 1-3 weeks, FIG. 2
Method: To determine if lymphocytes stimulated in vitro with either the HPV-18E6 peptide (SEQ ID NO. 1) or the HPV-16E6 peptide (SEQ ID NO. 10) would recognize and lyse peripheral blood mononuclear cells (PBMCs) pulsed with these peptides, the following experiment was performed. Lymphocytes isolated from a patient known to carry and express the HLA-A2 allele were stimulated in vitro (IVS) with either the HPV-18E6 peptide (SEQ ID NO. 1) or the HPV-16E6 peptide (SEQ ID NO. 10) at a 10 μm concentration for 1-3 weeks. Autologous PBMC target cells were radiolabeled with ^51Cr and pulsed with either the HPV-18E6 peptide (SEQ ID NO. 1) or the HPV-16E6 peptide (SEQ ID NO. 10). Each of the IVS lymphocyte populations were then mixed with each of the pulsed and labeled PBMC target cells and specific lysis was measured. Lymphocytes IVS with either the HPV-18E6 peptide (SEQ ID NO. 1) or the HPV-16E6 peptide (SEQ ID NO. 10) were able to lyse PBMCs which were pulsed with either the HPV-18E6 peptide (SEQ ID NO. 1) or the HPV-16E6 peptide (SEQ ID NO. 10) and had either the HPV-18E6 peptide (SEQ ID NO. 1) or the HPV-16E6 (SEQ ID NO. 10) peptide on their cell surface.
T cell cytotoxicity is measured by the standard ^51Cr-release assay. Briefly, target cells are radiolabeled with Na2 ^51CrO4. The patient's PBMC (which have been previously stimulated with an HPV peptide of Example 1 at 10 μm concentration for 1 to 3 weeks) are added to the labeled target cells in the presence or absence of the peptide. Cell lysis is determined by the specific release of ^51Cr (specific lysis). Target cells are autologous B-LCL or T2 cells pulsed with the peptide. If there is a detectable pre-immunization specific lysis, a 2.0 fold increase in the lytic units will be considered a positive response. If there is no detectable pre-immunization specific lysis, a post-immunization specific lysis of […] 10% above the controls will be considered a positive response.

HLA-A2 molecule = target: T1, HLA-A2 molecule (Homo sapiens, UniProt P04439, D140Y/D185E/D98H/E176V/E277Q/G131W/G231S/I119V/I121R/I166T/I218V/L300P/L318F/N151K/N90K/P208A/P217A/Q86G/Q94H/R138H/R169H/T345S); test: Binding of fluorescently labeled peptide to T2A2 cells; details: for affinity for HLA-A2 relative to the other peptides tested / binding to the HLA-A2 molecules on the surface of T2A2 cells: FIG. 1; for binding to the HLA-A2 molecules on the surface of T2A2 cells: fluorescently labeled peptide
T1 construct: endogenous in cells; host or cells: T2A2 cells

Sequence | specific lysis of autologous PBMC pulsed with either HPV-18E6 or HPV-16E6 peptide by lymphocytes stimulated in vitro with the peptide ([1]; listed as HPV-16E6 peptide) | specific lysis of autologous PBMC pulsed with either HPV-18E6 or HPV-16E6 peptide by lymphocytes stimulated in vitro with the peptide ([1]; listed as HPV-16E6 peptides) | specific lysis of autologous PBMC pulsed with either HPV-18E6 or HPV-16E6 peptide by lymphocytes stimulated in vitro with the peptide ([1]; listed as HPV-18E6 peptide) | specific lysis of autologous PBMC pulsed with either HPV-18E6 or HPV-16E6 peptide by lymphocytes stimulated in vitro with the peptide ([1]; listed as HPV-18E6 peptides) | fold higher affinity for the HLA-A2 molecule than the homologous HPV-16E6 peptide KLPQLCTEL (HLA-A2 molecule; T2A2 cells) | affinity for HLA-A2 relative to the other peptides tested (HLA-A2 molecule; T2A2 cells) | affinity for HLA-A2 relative to the other peptides tested (HLA-A2 molecule; T2A2 cells, listed as HPV-18E6 (13-21) peptide) | binding to the HLA-A2 molecules on the surface of T2A2 cells (HLA-A2 molecule) | binding to the HLA-A2 molecules on the surface of T2A2 cells (HLA-A2 molecule; listed as HPV-18E6 (13-21) peptide) | binding to the HLA-A2 molecules on the surface of T2A2 cells (HLA-A2 molecule; listed as HPV-18E6 peptide)
KLPQLCTEL [homologous peptide from the HPV-16E6 protein (amino acids 13-21), reference compound] | able to lyse | lyse | – | – | – | – | – | – | – | –
KLPDLCTEL | – | – | able to lyse; also recorded: able to elicit an immune response | specifically lyse | approximately 100 fold | higher affinity than did either the FMP peptide or the homologous peptide from the HPV-16E6 protein | higher than the homologous HPV-16E6 peptide | bound | high affinity | able to bind
